Stoichiometry N data for one substance are collected here from paper PMC5225433.

The experiment addresses EMILIN1 gC1q domain, wild type (recombinant). The experiment in a line: SDS-PAGE without boiling; purified gC1q (WT or mutant), incubated or not with NE at 37 °C, Laemmli buffer added, loaded on 4-20% gels without boiling to keep the trimer, Coomassie staining; trimer to monomers.

Consider “EMILIN1 gC1q domain, wild type (recombinant) (domain or fragment)”, for which the stoichiometry N was determined as 3.

What is called stoichiometry N is the number of molecules, sites or subunits per partner or assembly.
